According to paper PMC7295242:

How the values were obtained:
[1] = system: CCHFV nucleoprotein (NP) (Crimean-Congo hemorrhagic fever orthonairovirus); assay: fluorescence anisotropy
[2] = system: CCHFV nucleoprotein (NP) (Crimean-Congo hemorrhagic fever orthonairovirus); assay: competition fluorescence anisotropy

Substance | Kd [1] [nM] | IC50 [2] [nM]
27-mer RNA | 190 | 197
48-mer RNA | 230 | 167
